# Measured values reported in patent publication US20140235698A1, “RNA Aptamer Specifically Binding to Carcinoembryonic Antigen and Use thereof” (POSCO, published 2014).
# B1: GROUP I RNA aptamer (ssRNA)
# RNA: GGGAGAGCGGAAGCGUGCUGGGCUAGAAUAAUAAUAAGAAAACCAGUACUUUCGUGUCCCGGGAGGGUGCAUAACCCAGAGGUCGAUGGAUCC
# modifications: 2'-F pyrimidines (C and U)
# How the values were obtained:
# [1] = target: DR5 cloned in the pVP16 vector as an activation-domain fusion (UniProt O14763); experiment: cell-based or functional assay
# [2] = target: T1, ACEA (CEA/CEACAM5 A1 domain to B3 domain, N domain deleted) (Homo sapiens, UniProt P06731 P06731:145-675); experiment: SPR; Biacore 2000; conditions: tags: pET28a(+), Ni-NTA (His), E. coli BL21
# T1 sequence (P06731 145-675, stated change not applied, one chain of several): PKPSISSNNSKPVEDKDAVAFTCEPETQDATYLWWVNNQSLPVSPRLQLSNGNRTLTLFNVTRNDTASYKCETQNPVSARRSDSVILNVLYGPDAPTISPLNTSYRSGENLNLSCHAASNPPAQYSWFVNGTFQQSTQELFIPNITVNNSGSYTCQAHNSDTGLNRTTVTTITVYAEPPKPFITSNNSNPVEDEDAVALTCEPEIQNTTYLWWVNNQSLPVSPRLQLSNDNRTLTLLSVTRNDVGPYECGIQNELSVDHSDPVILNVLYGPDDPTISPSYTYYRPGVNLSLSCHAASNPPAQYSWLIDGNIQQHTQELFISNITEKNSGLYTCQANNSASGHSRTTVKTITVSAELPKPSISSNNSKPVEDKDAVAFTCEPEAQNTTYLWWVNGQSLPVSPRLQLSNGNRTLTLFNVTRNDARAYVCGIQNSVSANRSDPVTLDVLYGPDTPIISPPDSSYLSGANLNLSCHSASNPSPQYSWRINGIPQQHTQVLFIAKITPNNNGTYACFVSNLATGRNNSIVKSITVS
# Method: (§1) To measure the affinity of RNA aptamer to CEA, SPR analysis was performed with Biacore 2000 (GE healthcare) device. Various concentrations of RNAs (Trunc. GROUP 1-1 & 1-2 and Mutant GROUP 1-1 & 1-2, Loop-only, Library) were flowed on NCEA and ACEA to measure the binding affinity, which is shown in the following TABLE 4 and FIG. 4.
# [3] = target: T2, NCEA (CEA/CEACAM5 N domain to B3 domain) (Homo sapiens, UniProt P06731 P06731:35-675); experiment: SPR; Biacore 2000; conditions: tags: pET28a(+), Ni-NTA (His), E. coli BL21; hairpin-loop (predicted)
# T2 sequence (P06731 35-675, one chain of several): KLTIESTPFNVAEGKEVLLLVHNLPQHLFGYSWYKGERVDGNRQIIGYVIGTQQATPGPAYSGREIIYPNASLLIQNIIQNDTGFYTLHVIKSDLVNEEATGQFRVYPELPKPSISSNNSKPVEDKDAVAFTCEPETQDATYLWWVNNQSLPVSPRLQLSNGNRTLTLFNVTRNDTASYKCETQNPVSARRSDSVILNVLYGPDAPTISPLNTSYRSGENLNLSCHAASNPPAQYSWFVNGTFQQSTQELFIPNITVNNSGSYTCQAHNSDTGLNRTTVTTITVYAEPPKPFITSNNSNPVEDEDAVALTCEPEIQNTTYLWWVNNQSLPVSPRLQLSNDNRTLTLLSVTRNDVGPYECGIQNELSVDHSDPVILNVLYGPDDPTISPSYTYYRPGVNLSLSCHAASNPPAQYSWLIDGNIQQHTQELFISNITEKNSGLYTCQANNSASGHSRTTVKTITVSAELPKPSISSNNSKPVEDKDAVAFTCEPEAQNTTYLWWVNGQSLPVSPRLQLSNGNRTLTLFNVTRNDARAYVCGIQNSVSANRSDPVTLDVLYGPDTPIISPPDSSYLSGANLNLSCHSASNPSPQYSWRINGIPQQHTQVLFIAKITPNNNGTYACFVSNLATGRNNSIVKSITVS
# Method: as §1
# [4] = target: T1, ACEA (CEA/CEACAM5 A1 domain to B3 …); experiment: SPR; Biacore 2000; GROUP I member tested not specified (SEQ 1-12); conditions: tags: pET28a(+), Ni-NTA (His), E. coli BL21
# Method: (§2) To measure the affinity of RNA to CEA, SPR analysis was performed with Biacore 2000 (GE healthcare) device. Various concentrations of RNAs (GROUP 1, 2, 3 and library in FIG. 2) were flowed on NCEA and ACEA to measure the binding affinity.
# (§3) The above value is measured using BIAevaluation program (which is used to analyze graph obtained from BIAcore device).
# [5] = target: T2, NCEA (CEA/CEACAM5 N domain to B3 domain); experiment: as above; conditions: tags: pET28a(+), Ni-NTA (His), E. coli BL21
# Method: as §2, §3
# [6] = target: T2, NCEA (CEA/CEACAM5 N domain to B3 domain); experiment: SPR; Biacore 2000; loop mutant, weakened or no binding per text; conditions: tags: pET28a(+), Ni-NTA (His), E. coli BL21
# Method: as §1
molecule,measurement,setting,value
"NCEA (protein consisting of N domain to B3 domain of CEA, CEACAM5) cloned in the pM vector as a GAL4 DNA-BD fusion (from UniProt P04386 1-147; P06731 35-676)",SEAP activity in the medium of transfected cells (mammalian two-hybrid system),[1],2.5 fold
"GUGCUGGGCUAGAAUAAUAAUAAGAAAACCAGUAC (ssRNA, 2'-F pyrimidines (C and U)) [Truncated GROUP 1-2 (19-2)]",Kd,[2]; hairpin-loop (predicted),590 nM
same,Kd,[3],4 nM
B1,Kd,[4],3.22 nM
same,Kd,[5],0.313 nM
"GCGGAAGCGUGCUGGGCUAGAAUAAUAAUAAGAAAACCAGUACUUUCGU (ssRNA, 2'-F pyrimidines (C and U)) [Truncated GROUP 1-1 (19-1, YJ-1)]",Kd,[2]; hairpin-loop (predicted),600 nM
same,Kd,[3],0.77 nM
"GCGGAAGCGUGCUGGGCUAGGGCGGCGGCGGGAAAACCAGUACUUUCGU (ssRNA, 2'-F pyrimidines (C and U)) [Mutant GROUP 1-1 (m19-1, mutant YJ-1)]",Kd,[2],790 nM
same,Kd,[6],1300 nM
"GGCUAGAAUAAUAAUAAGAAAAC (ssRNA, 2'-F pyrimidines (C and U)) [Loop only]",Kd,[2],1100 nM
"GUGCUGGGCUAGGGCGGCGGCGGGAAAACCAGUAC (ssRNA, 2'-F pyrimidines (C and U)) [Mutant GROUP 1-2 (m19-2)]",Kd,[2],630 nM
same,Kd,[6],420 nM
